In doi:10.1101/2020.04.10.035014 (bioRxiv, 2020):

B1: C-terminus of INTS3 (INTS3c; residues 560-905 and 915-995, co-expressed) (domain or fragment, human)
chain 1: TVVEEPVDITPYLDQLDESLRDKVLQLQKGSDTEAQCEVMQEIVDQVLEEDFDSEQLSVLASCLQELFKAHFRGEVLPEEITEESLEESVGKPLYLIFRNLCQMQEDNSSFSLLLDLLSELYQKQPKIGYHLLYYLRASKAAAGKMNLYESFAQATQLGDLHTCLMMDMKACQEDDVRLLCHLTPSIYTEFPDETLRSGELLNMIVAVIDSAQLQELVCHVMMGNLVMFRKDSVLNILIQSLDWETFEQYCAWQLFLAHNIPLETIIPILQHLKYKEHPEALSCLLLQLRREKPSEEMVKMVLSRPCHPDDQFTTSILRHWCMKHDELLAEHIKSLLIKNNSLPRK
chain 2: KLAQLTLEQILEHLDNLRLNLTNTKQNFFSQTPILQALQHVQASCDEAHKMKFSDLFSLAEEYEDSSTKPPKSRRKAALSS

Legend:
crystal structure = target: the molecule itself; experiment: crystal structure
SEC = target: the molecule itself; experiment: SEC
[1] = target: B1; experiment: crystal structure

## B1
Crystal structure
  stoichiometry N: 2

B2: INTS3(1-995) (domain or fragment, human, UniProt Q68E01 1-995, looked up)
chain: MELQKGKGAAAAAAASGAAGGGGGGAGAGAPGGGRLLLSTSLDAKDELEERLERCMSIVTSMTAGVSEREANDALNAYVCKGLPQHEEICLGLFTLILTEPAQAQKCYRDLALVSRDGMNIVLNKINQILMEKYLKLQDTCRTQLVWLVRELVKSGVLGADGVCMTFMKQIAGGGDVTAKNIWLAESVLDILTEQREWVLKSSILIAMAVYTYLRLIVDHHGTAQLQALRQKEVDFCISLLRERFMECLMIGRDLVRLLQNVARIPEFELLWKDIIHNPQALSPQFTGILQLLQSRTSRKFLACRLTPDMETKLLFMTSRVRFGQQKRYQDWFQRQYLSTPDSQSLRCDLIRYICGVVHPSNEVLSSDILPRWAIIGWLLTTCTSNVAASNAKLALFYDWLFFSPDKDSIMNIEPAILVMHHSMKPHPAITATLLDFMCRIIPNFYPPLEGHVRQGVFSSLNHIVEKRVLAHLAPLFDNPKLDKELRAMLREKFPEFCSSPSPPVEVKIEEPVSMEMDNHMSDKDESCYDNAEAAFSDDEEDLNSKGKKREFRFHPIKETVVEEPVDITPYLDQLDESLRDKVLQLQKGSDTEAQCEVMQEIVDQVLEEDFDSEQLSVLASCLQELFKAHFRGEVLPEEITEESLEESVGKPLYLIFRNLCQMQEDNSSFSLLLDLLSELYQKQPKIGYHLLYYLRASKAAAGKMNLYESFAQATQLGDLHTCLMMDMKACQEDDVRLLCHLTPSIYTEFPDETLRSGELLNMIVAVIDSAQLQELVCHVMMGNLVMFRKDSVLNILIQSLDWETFEQYCAWQLFLAHNIPLETIIPILQHLKYKEHPEALSCLLLQLRREKPSEEMVKMVLSRPCHPDDQFTTSILRHWCMKHDELLAEHIKSLLIKNNSLPRKRQSLRSSSSKLAQLTLEQILEHLDNLRLNLTNTKQNFFSQTPILQALQHVQASCDEAHKMKFSDLFSLAEEYEDSSTKPPKSRRKAALSS
SEC
  stoichiometry N: 2

B3: C-terminus of INTS6 (INTS6c; residues 800-887) (domain or fragment, human, UniProt Q9UL03 800-887, looked up)
chain: MHCRSHEEVNTELKAQIMKEIRKPGRKYERIFTLLKHVQGSLQTRLIFLQNVIKEASRFKKRMLIEQLENFLDEIHRRANQINHINSN
[1]
  binding result: binds
